Source: PMC5526109

Molecular target: MAdCAM-1 (mucosal addressin cell adhesion molecule-1) (UniProt Q13477)
Test: cell adhesion assay

Chain of UniProt Q13477 (Q13477 19-382): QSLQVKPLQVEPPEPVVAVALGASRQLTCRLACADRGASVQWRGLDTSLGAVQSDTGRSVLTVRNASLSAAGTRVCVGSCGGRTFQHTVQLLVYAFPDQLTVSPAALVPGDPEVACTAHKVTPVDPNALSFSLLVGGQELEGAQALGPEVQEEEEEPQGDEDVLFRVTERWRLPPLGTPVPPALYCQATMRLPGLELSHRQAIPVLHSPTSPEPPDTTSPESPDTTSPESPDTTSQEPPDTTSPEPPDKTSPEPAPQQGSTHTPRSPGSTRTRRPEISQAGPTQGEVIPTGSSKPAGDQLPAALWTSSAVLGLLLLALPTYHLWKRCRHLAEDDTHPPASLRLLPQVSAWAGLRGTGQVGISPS

“α4β7 integrin (from UniProt P13612 34-1032; P26010 20-798) (receptor)” gave a relative light units of bound cells (~7.5 pmol MAdCAM-1 coated) of 1e+06 RLU.
